The text below walks through data of paper PMC4521584, “MutS/MutL crystal structure reveals that the MutS sliding clamp loads MutL onto DNA” (eLife, 2015).

The experiment has as its target T1, WT MutS, full length (E. coli, UniProt P23909 1-853).
T1 construct: MutS, E. coli, wild type; also called MutS sliding clamp; source: mutS gene in vector pET-3D; purified as described previously
T1 sequence (looked up): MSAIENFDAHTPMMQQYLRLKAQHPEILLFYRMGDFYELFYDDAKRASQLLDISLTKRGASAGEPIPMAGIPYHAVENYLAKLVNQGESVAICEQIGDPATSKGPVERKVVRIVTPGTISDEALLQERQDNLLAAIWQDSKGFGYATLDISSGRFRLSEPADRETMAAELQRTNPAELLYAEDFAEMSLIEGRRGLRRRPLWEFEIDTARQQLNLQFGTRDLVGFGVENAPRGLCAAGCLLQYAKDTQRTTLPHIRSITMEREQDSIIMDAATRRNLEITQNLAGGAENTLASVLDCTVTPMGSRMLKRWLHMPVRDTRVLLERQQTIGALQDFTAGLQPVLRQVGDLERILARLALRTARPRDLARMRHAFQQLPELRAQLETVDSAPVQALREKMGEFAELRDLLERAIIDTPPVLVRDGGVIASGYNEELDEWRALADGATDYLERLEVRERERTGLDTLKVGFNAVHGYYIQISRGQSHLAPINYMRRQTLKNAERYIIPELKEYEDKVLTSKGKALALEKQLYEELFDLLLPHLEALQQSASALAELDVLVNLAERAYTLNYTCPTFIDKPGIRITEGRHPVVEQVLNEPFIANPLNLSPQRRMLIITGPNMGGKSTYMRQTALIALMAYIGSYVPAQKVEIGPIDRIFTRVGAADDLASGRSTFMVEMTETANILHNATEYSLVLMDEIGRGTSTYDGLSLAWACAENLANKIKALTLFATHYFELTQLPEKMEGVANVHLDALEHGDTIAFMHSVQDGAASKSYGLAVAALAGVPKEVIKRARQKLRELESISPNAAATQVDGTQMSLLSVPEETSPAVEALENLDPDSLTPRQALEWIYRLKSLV
The experiment can be described thus: SPR; two-step: 200 nM MutS with 1 mM ATP trapped as sliding clamps on immobilised, end-blocked 100-bp G:T DNA, then MutL (varying concentrations, 1 mM ATP) injected 120 s; MutS-only signal subtracted; 25 mM Hepes pH 7.5, 150 mM KCl, 5 mM MgCl2, 1 mM DTT, 0.05% TWEEN-20, 20% glycerol; not strictly affinity curves. As to conditions: both partners purified.

B1: WT His6-MutL, full length (natural protein, E. coli, UniProt P23367 1-615, looked up)
chain: MPIQVLPPQLANQIAAGEVVERPASVVKELVENSLDAGATRIDIDIERGGAKLIRIRDNGCGIKKDELALALARHATSKIASLDDLEAIISLGFRGEALASISSVSRLTLTSRTAEQQEAWQAYAEGRDMNVTVKPAAHPVGTTLEVLDLFYNTPARRKFLRTEKTEFNHIDEIIRRIALARFDVTINLSHNGKIVRQYRAVPEGGQKERRLGAICGTAFLEQALAIEWQHGDLTLRGWVADPNHTTPALAEIQYCYVNGRMMRDRLINHAIRQACEDKLGADQQPAFVLYLEIDPHQVDVNVHPAKHEVRFHQSRLVHDFIYQGVLSVLQQQLETPLPLDDEPQPAPRSIPENRVAAGRNHFAEPAAREPVAPRYTPAPASGSRPAAPWPNAQPGYQKQQGEVYRQLLQTPAPMQKLKAPEPQEPALAANSQSFGRVLTIVHSDCALLERDGNISLLSLPVAERWLRQAQLTPGEAPVCAQPLLIPLRLKVSAEEKSALEKAQSALAELGIDFQSDAQHVTIRAVPLPLRQQNLQILIPELIGYLAKQSVFEPGNIAQWIARNLMSEHAQWSMAQAITLLADVERLCPQLVKTPPGGLLQSVDLHPAIKALKDE
notes: MutL, E. coli, wild type; also called WT MutL; WT His-MutL; source: mutL gene in plasmid pTX418; purified as described previously
With B1, the binding result was “binds”.
